Results: patent US20080003614A1 (University of Texas, published 2008)

Tests used:
RIP1 = target: T1, RIP1 (UniProt Q13546 1-671, limits assumed); assay: co-immunoprecipitation with MAVS antibody, overexpression in HEK293 cells (FIG. 12A)
T1 construct: also called RIPI
T1 sequence (looked up): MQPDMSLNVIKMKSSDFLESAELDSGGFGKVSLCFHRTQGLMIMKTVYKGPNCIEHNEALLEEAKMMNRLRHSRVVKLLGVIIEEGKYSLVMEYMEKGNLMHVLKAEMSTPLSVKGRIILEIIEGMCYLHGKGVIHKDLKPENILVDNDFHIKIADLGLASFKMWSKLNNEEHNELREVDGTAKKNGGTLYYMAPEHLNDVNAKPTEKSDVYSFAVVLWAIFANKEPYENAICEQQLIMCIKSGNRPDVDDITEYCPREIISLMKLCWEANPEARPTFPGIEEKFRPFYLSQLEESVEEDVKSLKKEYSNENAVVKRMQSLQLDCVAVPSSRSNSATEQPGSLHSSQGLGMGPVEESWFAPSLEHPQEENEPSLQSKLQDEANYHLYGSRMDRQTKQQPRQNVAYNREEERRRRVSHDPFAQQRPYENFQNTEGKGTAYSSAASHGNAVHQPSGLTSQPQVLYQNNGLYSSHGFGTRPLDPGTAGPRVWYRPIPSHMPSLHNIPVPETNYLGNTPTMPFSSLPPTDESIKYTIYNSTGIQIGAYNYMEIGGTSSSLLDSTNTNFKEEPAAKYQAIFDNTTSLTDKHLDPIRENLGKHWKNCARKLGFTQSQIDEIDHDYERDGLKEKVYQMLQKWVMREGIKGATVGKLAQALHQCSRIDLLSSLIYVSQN

FADD = target: T2, FADD (UniProt Q13158 1-208, limits assumed); assay: as above
T2 sequence (looked up): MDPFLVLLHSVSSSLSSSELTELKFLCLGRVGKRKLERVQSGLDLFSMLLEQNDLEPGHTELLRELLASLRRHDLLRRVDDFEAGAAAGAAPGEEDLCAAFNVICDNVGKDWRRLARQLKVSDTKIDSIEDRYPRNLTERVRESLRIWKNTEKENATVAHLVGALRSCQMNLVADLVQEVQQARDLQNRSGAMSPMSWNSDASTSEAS

B1: HA-MAVS (N-terminal HA-tagged Mitochondrial Anti-Viral Signaling protein) (other)
chain: MPFAEDKTYKYICRNFSNFCNVDVVEILPYLPCLTARDQDRLRATCTLSGNRDTLWHLFNTLQRRPGWVEYFIAALRGCELVDLADEVASVYESYQPRTSDRPPDPLEPPSLPAERPGPPTPAAAHSIPYNSCREKEPSYPMPVQETQAPESPGENSEQALQTLSPRAIPRNPDGGPLESSSDLAALSPLTSSGHQEKDTELGSTHTAGATSSLTPSRGPVSPSVSFQPLARSTPRASRLPGPTGSVVSTGTSFSSSSPGLASAGAAEGKQGAESDQAEPIICSSGAEAPANSLPSKVPTTLMPVNTVALKVPANPASVSTVPSKLPTSSKPPGAVPSNALTNPAPSKLPINSTRAGMVPSKVPTSMVLTKVSASTVPTDGSSRNEETPAAPTPAGATGGSSAWLDSSFENRGLGSELSKPGVLASQVDSPFSGCFEDLAISASTSLGMGPCHGPEENEYKSEGTFGIHVAENPSIQLLEGNPGPPADPDGGPRPQADRKFQEREVPCHRPSPGALWLQVAVTGVLVVTLLVVLYRRRLH
notes: also called KIAA1271; pEF-HA-MAVS; not shown: N-terminal HA tag
**Q.** Does B1 bind (RIP1)?
**A.** no binding

**Q.** Does B1 bind (FADD)?
**A.** no binding
